We go through 1 molecule from patent US20250012721A1 (JIANGSU UNIVERSITY, published 2025).

One assay has as its target T1, MASP1 (UniProt P48740 20-699, limits assumed).
T1 sequence (looked up): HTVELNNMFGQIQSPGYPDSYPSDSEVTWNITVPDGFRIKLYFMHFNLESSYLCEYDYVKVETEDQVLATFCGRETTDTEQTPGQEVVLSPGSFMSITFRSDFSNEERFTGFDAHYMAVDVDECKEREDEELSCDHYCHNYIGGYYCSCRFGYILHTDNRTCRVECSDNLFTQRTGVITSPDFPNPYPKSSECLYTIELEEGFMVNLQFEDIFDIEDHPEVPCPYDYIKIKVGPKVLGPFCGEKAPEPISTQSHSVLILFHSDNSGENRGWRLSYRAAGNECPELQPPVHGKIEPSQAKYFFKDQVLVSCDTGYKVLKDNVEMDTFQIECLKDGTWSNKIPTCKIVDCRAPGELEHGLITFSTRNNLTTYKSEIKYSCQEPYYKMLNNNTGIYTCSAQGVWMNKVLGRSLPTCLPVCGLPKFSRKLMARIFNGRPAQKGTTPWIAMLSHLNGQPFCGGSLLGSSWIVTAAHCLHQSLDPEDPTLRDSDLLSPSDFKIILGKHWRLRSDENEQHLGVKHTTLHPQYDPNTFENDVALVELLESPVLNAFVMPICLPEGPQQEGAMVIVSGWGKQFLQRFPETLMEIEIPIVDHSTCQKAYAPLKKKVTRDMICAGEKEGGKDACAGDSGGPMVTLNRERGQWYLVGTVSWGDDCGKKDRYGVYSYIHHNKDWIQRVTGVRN
Put plainly: cell-based or functional assay.

For the next assay, the target named is T2, double-stranded C1r (UniProt P00736 18-705).
T2 sequence (looked up): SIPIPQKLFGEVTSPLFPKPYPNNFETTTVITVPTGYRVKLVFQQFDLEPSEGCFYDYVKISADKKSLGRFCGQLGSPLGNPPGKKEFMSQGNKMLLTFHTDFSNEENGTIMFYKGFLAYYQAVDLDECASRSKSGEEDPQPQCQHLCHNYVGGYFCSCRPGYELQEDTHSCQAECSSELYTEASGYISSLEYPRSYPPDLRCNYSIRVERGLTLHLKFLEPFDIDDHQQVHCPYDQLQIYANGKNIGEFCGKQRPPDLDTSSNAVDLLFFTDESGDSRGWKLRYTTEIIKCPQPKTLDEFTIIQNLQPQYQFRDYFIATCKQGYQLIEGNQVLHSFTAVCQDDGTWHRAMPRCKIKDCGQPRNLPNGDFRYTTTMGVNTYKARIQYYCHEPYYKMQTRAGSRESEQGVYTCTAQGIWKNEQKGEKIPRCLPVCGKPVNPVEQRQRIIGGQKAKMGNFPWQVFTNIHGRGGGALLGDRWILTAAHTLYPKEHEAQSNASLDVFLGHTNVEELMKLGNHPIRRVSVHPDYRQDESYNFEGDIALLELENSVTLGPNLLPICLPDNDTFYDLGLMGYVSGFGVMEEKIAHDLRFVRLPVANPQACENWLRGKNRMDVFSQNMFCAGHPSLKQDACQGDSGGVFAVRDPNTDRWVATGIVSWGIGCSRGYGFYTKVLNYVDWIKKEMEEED
Put plainly: cell-based or functional assay.

For the next assay, the target named is MASP2 (UniProt O00187 16-686, limits assumed). Put plainly: cell-based or functional assay.
Chain of MASP2 (O00187 16-686 limits assumed): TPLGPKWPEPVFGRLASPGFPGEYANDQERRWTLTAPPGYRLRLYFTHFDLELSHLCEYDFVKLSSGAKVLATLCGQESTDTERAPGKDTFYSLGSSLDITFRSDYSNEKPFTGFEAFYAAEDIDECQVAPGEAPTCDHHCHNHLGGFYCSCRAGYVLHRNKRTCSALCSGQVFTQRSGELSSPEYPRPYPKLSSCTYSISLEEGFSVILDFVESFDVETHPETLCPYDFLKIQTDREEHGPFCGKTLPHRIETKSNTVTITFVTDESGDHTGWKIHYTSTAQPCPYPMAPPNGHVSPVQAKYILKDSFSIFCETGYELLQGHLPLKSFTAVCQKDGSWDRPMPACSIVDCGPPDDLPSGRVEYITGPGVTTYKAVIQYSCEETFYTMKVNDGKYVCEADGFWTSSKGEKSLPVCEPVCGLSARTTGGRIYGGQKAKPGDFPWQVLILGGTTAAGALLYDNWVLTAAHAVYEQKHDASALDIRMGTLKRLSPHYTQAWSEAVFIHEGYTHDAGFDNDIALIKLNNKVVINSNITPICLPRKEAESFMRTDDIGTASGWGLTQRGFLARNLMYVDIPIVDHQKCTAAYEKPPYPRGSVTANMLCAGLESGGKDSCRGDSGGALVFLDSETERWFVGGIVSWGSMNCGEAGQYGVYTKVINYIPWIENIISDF
The next assay deals with T3, C1r protein (UniProt P00736 18-705).
T3 construct: also called Cir protein
T3 sequence (looked up): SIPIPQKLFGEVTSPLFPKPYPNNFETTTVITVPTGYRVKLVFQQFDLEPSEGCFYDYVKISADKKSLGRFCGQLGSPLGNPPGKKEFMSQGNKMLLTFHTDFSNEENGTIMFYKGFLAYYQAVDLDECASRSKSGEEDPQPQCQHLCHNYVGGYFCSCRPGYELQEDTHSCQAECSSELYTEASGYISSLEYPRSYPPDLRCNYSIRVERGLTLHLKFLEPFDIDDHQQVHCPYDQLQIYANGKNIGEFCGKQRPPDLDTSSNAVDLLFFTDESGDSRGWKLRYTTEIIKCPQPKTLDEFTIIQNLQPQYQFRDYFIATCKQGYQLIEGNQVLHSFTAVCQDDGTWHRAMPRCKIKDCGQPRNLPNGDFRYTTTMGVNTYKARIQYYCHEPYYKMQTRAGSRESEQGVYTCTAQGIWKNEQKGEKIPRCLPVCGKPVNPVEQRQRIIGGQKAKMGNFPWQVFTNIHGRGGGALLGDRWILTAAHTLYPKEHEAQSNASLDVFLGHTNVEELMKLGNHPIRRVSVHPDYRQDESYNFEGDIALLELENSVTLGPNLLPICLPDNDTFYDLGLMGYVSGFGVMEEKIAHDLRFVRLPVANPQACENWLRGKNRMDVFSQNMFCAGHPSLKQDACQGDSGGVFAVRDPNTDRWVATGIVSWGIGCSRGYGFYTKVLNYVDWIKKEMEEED
Put plainly: indirect ELISA, antigen coated at 1 µg/ml, Goat anti-Human IgG-HRP detection, OD 450 nm. Here is the method:
In this example, the antigen-binding specificity of the C1s recombinant antibody was analyzed by an indirect ELISA method according to the principle of the specificity detection of the C1s recombinant antibody shown in FIG. 4. An analysis method included the following steps:
200 μL (1 μg/ml) of C1s antigen (single-stranded unactivated C1s protein, double-stranded activated C1s protein, or C1r protein) was added respectively to wells of a microtiter plate, and the microtiter plate was gently shaken to make the antigen cover a well bottom of the microtiter plate. Incubation was performed overnight at 4° C. After washing the plate 3 times with a warm PBS, 200 μL of a blocking solution (10 mM PBS, 1% BSA, 0.1% casein) was added to perform blocking. Incubation was next performed at 37° C. for 1 h. The plate was washed 5 times with PBS. 100 μL of the C1s recombinant antibody was added in each well (an initial concentration of a first well was 10 μg/mL, then diluted down to 7 wells according to a ratio of ¼ gradient to set up duplicate wells), incubation was performed at 37° C. for 1 h. The liquid in the microtiter plate was spin-dried, and the plate was washed with 200 μL of warm PBS 5 times. 100 μL of a diluted secondary antibody (Goat anti-Human IgG-HRP) was added to each well of the microtiter plate. […] An optical density (OD) was read at 450 nm on the microplate reader.
On the technique in general: ELISA stands for enzyme-linked immunosorbent assay.

Where “and” joins values, the source holds several entries; their conditions need not be identical. Equal entries are not always repeated.

B1: C1s recombinant antibody (antibody, human IgG4 S228P, kappa, V domains shown)
VH: EVQLVESGGGLVKPGGSLRLSCAASGFTFSNYAMSWVRQAPGKGLEWVATISSGGSHTYYLDSVKGRFTISRDNSKNTLYLQMNSLRAEDTALYYCARLFTGYAMDYWGQGTLVTVSS
VL: QIVLTQSPATLSLSPGERATMSCTASSSVSSSYLHWYQQKPGKAPKLWIYSTSNLASGVPSRFSGSGSGTDYTLTISSLQPEDFATYYCHQYYRLPPITFGQGTKLEIKR
notes: The summary and claim 1 call the same entries variable regions; Expressed in HEK293T; also called C1s-specific recombinant antibody; recombinant anti-C1s antibody
For B1, the “Cross reaction rate (%)” value in the assay with MASP1 turned out to be 0.04%; with double-stranded C1r, 0.15%; with MASP2, 0.04%. Further, the Measured concentration in the assay with MASP1 is 1.82 pmol/min/µg and 2 µg/mL; with double-stranded C1r, 0.91 pmol/min/µg and 1 µg/mL; in the assay with MASP2, 1.64 pmol/min/µg and 1.8 µg/mL. The binding result with C1r protein was “no binding”.
